Patent publication US20130266515, “Specific Ligand for Annexin 2” (Commissariat A L'Energie Atomique ET AUX Energies …, published 2013)

Columns and labels:
annexin 2 [1] = target: T1, annexin 2 (Homo sapiens, UniProt P07355 SEQ:2-339); assay: MDA-MB-231 cells, Scatchard; Cmax 167 pM; settings: label: 32P, phycoerythrin, Alexa Fluor 546, biotin or Quantum Dot depending on assay; predicted secondary structure with potential pseudoknots
Description: (§1) The binding curves were obtained for each cell type. On the basis of the specific binding, and using the Scatchard representation, the Kd and the number of targets per cell were determined for each of the cell types. The target of the ACE8 aptamer appears to be highly abundant at the surface of two human cancer lines (MCF-7 and A-431).

[2] = target: annexin 2/S100A10 heterotetrameric complex (Bos taurus, UniProt P04272;P60902 P04272:2-339,P60902:2-97); assay: filter; 0-12.5 nM protein, 1 pmol RNA in 200 ul RPMI 1640, 3 ug yeast tRNA, ambient temperature; very strong affinity compared with control; settings: tags: purified from bovine lung, Interchim A80109B; chain copies: 2 annexin 2 + 2 S100A10 (stated); label: 32P, phycoerythrin, Alexa Fluor 546, biotin or Quantum Dot depending on assay; predicted secondary structure with potential pseudoknots
Description: 1 pmol of ACE8 aptamer or of the control sequence was then preincubated with various concentrations of an annexin 2/S100A10 heterotetrameric complex. The fraction of ACE8 aptamer or of control sequence bound to the annexin 2/S100A10 heterotetramer was retained on a nitrocellulose filter and analyzed and quantified using a Storm Phosphorimager. […] FIG. 23 represents the quantification of the amount of oligonucleotides retained on the filter as a function of the concentration of annexin 2/S100A10 heterotetramer.
For this, the oligonucleotides (ACE8 aptamer or control sequence (SEQ ID NO: 11)) were dephosphorylated at their 5′ end for 30 min at 37° C. with 2.5 U of Antarctic Phosphatase (New-England Biolabs) per nmol of 2′F-Py RNA. After inactivation of the enzyme at 88° C. for 15 min, the 2′F-Py RNA was precipitated with ethanol in the presence of 5 μl/ml of a neutral coprecipitant (Linear Polyacrylamide or LPA) (Ambion). The oligonucleotides were then labeled with ATP [gamma-³²P] using T4 kinase (invitrogen) according to the supplier's instructions. The 2′F-Py RNAs (2.3 MBq, i.e. 63nCi/pmol or 63nCi/pmol⁻¹) were subsequently purified by exclusion chromatography (Bio-Spin Sp30 Chromatography Columns (Biorad)). […]

annexin 2 [3] = target: T1, annexin 2; assay: A-431 cells, Scatchard; Cmax 450 pM; settings: label: 32P, phycoerythrin, Alexa Fluor 546, biotin or Quantum Dot depending on assay; predicted secondary structure with potential pseudoknots
Description: as §1

annexin 2 [4] = target: T1, annexin 2; assay: U87-MG cells, Scatchard; Cmax 245 pM; settings: label: 32P, phycoerythrin, Alexa Fluor 546, biotin or Quantum Dot depending on assay; predicted secondary structure with potential pseudoknots
annexin 2 [5] = target: T1, annexin 2; assay: HEK-293 cells, Scatchard; Cmax 269 pM; settings: label: 32P, phycoerythrin, Alexa Fluor 546, biotin or Quantum Dot depending on assay; predicted secondary structure with potential pseudoknots

T1 sequence (P07355 2-339): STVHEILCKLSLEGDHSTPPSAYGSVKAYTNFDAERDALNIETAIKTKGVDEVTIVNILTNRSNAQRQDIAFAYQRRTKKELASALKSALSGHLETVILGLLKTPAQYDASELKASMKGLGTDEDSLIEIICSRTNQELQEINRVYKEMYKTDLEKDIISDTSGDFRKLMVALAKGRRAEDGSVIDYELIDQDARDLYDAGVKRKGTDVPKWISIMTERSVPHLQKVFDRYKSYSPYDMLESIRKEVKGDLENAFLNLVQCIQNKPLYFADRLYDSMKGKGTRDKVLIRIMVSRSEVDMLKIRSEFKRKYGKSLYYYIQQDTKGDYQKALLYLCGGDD
Chain of annexin 2/S100A10 heterotetrameric complex (P04272 2-339, chain 1 of 2): as the sequence (P07355 2-339) above, with A65E, I159V, P222C, D229E, R244K, R308K counted along it
Chain of annexin 2/S100A10 heterotetrameric complex (P60902 2-97, chain 2 of 2): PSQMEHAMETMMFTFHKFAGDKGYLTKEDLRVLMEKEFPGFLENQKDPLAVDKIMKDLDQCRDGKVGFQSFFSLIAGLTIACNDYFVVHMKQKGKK

B1: ACE8 (ssRNA)
RNA: GGGAGAUGAUCCGUUGAUGCGAGGGAACGCAAGAACUGAGGCCAUGAGGCGCCUUCCCUUGCUCAGGACGCAAGUCGUCGUUCGUAGGCAGAAUC
modifications: 2'-F pyrimidines, 2'-OH purines
Kd (annexin 2 [1]): 4.4 nM
binding result [2]: binds
Kd (annexin 2 [3]): 5.3 nM
Kd (annexin 2 [4]): 12.7 nM
Kd (annexin 2 [5]): 4.4 nM
